In assay [1] the target is CD99 on the surface of Jurkat T cells (Homo sapiens (Jurkat, endogenous), UniProt P14209). Nature of the assay: flow cytometry on cells. For orientation: A flow cytometer gives signals particle by particle.
In assay [2] the target is T1, biotinylated CD99 peptide target epitope (Biotin-Ahx-AVVDGENDDPRPPNP) (Homo sapiens (synthetic peptide)).
T1 chain: {Biotin-Ahx}-AVVDGENDDPRPPNP
Nature of the assay: BLI. For orientation: Biolayer interferometry detects binding as a change in optical thickness at a sensor tip.

Positions count from the first letter of the chain named. Ends that are not written are not given here. * marks the point of attachment. Biotin = O=C1N[C@H]2[C@H](CS[C@H]2CCCCC(=O)*)N1; Ahx = NCCCCCC(=O)O

Chain of CD99 on the surface of Jurkat T cells (P14209 23-185): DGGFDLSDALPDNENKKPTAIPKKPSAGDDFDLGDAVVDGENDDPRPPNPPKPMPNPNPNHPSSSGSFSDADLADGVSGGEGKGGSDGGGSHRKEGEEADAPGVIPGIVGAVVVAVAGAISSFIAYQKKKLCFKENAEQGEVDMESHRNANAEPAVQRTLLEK

B1: HuScFvMT99/3^BP (His6X) (scFv, V domains shown)
VH: QVQLQESGPGLVKPSETLSLTCTVSGGSIKDTYIHWVRQPPGKGLEWIGRIDPGNGNIKYDPKFQGRATISADTSKNQVSLNLDSVTAADTAIYYCARSGGYDFDYWGQGTLVTVSS
VL: VLMTQSPSSLSASVGDRVTITCRSSQSLVHSNGNTYLHWYQQKPGQSPKLLIYTVSNRFSGVPDRFSGSGSGTDFTLTISSLQAEDVAVYYCSQSTYVPYTFGPGTKVDIK
With B1, in assay [1], the binding result was “binds”. In assay [2], this molecule yielded a Kd of 264 nM.

B2: HuScFvMT99/3^WT (His6X) (scFv, V domains shown)
VH: B1 VH with V24L, G27F, S28N, T87S, Q109K, T111S, L112T
VL: B1 VL with L2Q, Q46K, S47A, D64S, L77F, A84P, V87I, V89T, Y91F
In turn, B2 showed a dissociation constant Kd in assay [2] of 135 nM.

B3: HuScFvMT99/3^HY (His6X) (scFv, V domains shown)
VH: B1 VH
VL: B1 VL with L2Q, Q46K, S47A, D64S, L77F, A84P, V87I, V89T, Y91F
Consider B3, for which the binding result in assay [1] was “binds”. The molecule also showed a dissociation constant (Kd) in assay [2] of 395 nM.

The term Kd denotes the constant that tells how readily two partners part at equilibrium. Higher therefore signals a looser complex.
